# Results from the RNAGym collection of RNA variant scans (doi:10.1073/pnas.2313332121).
# B1: TPR t1 (parent)
# chain: GACCAAUCUGCCCUCAGAGCUCGAGAACAUCUUCGGAUGCAGAGGAGGCAGGCUUCGGUGGCGCGAUAGCGCCAACGUCCUCAACCUCCAAUGCAUCCCACCACAUGAUGAUGCCUGAAGAGCCUUGGUUUUUUG
# Variants of: B1
# Test: polymerase ribozyme fitness, log enrichment relative to wild type (log ratio); higher = more active; in vitro selection for triplet polymerase activity
# How it was run: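 Genotype fitness is the logarithm of its enrichment divided by wild-type enrichment, using inverse-variance-weighted averages of replicates. That logarithm is base 2. Enrichment was measured by Illumina sequencing of input and output libraries from one triplicate in vitro selection round, with frozen incubation at −7 °C, on PCR-built, transcribed mutant libraries of each subunit of a heterodimeric triplet polymerase ribozyme, retaining genotypes with ≥10 input reads and ≥1 read per output.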
row,Variant,polymerase ribozyme fitness (log ratio)
1,G17A C115U U125A,0.421
2,A16C C124A,0.87
3,G17A G77U U78A A118U,-4.97
4,C15A A37U,-2.28
5,C15G G57A,-4.5
6,C15G A29G C88G,-3.43
7,A16U C72G,-1.5
8,C15U G52A A91G,-2.95
9,C15G A16C G51U G61U G71C C79A U112G,-6.41
10,A16U A46U C49A,-2.45
11,C15A A46C G63A G113C C114U,-6.03
12,A16G A68G,-4.75
13,C15A C82G G117C G120C,-5.78
14,C15U G61C,-2.32
15,C15U G61U,-0.638
16,A16U C62U U81G A121U,-2.2
17,A16U G69A C82G C97A C114U U133G,-5.51
18,C15A A37U G39A G42U A90U,-3.14
19,A16U C62U C94U,-1.79
20,C15U A50U G63C C89U,-3.78
21,A16G C76G G120A,-2.25

row,Variant,polymerase ribozyme fitness (log ratio)
1,C15A A111G,-2.08
2,A16U C49A G69U,-1.01
3,C15A G48C,-3.05
4,C15U U54C C72U,-1.39
5,C15A A29G C72A U81A U87C G120C,-2.96
6,A16U C114A,-4.01
7,C15A C20A G71U A118U,-4.11
8,C15G A84U G120U U129G,-5.84
9,A16C G58C,-2.65
10,C15U G69C C73G C94A A111C,-6.09
11,C15G G63A,-3.35
12,C15G G63U,-3.98
13,C15G G71U C72U A95U,-4.5
14,G17A A18C C114G C124A G135U,-5.65
15,C15G C70U,-3.1
16,C15A G47U G61U G110A,-3.43
17,G17A G69U U81A U116A,-2.91
18,C15U G57U C72G U81G,-2.79
19,C15A U109G G113A U131A,-5.16
20,A16G G61U A66U U81A U106A U116C,-0.459
21,G17C A37U C64U U92A,-5.44

row,Variant,polymerase ribozyme fitness (log ratio)
1,C15G U106G G117C,0.15
2,C15U C64U G77A G93C C98U G120A C124G,-1.82
3,C15U A74G C88A A91C,-2.13
4,C15A C20A A118U,-3.93
5,C15U G71A C102A,-5.13
6,A16U C72G G122A,-2.16
7,C15G G117C,-3.41
8,C15A C88U,-2.17
9,A16C G57U G71U U87A G127C,-6.26
10,C15A G52A G117U,0.0979
11,C15G C28A G44U G52U G69U,-5.21
12,A16G A46U C124U,-0.673
13,C15U A27U,-4.81
14,C15U U54C C73U G113A C124G,-0.579
15,C15G A16U C72U U109A C115U,-6.16
16,A16U G69U C98U A121C U130A,-0.111
17,A16C G44C C49U,-3.94
18,A16C G52A A119G,0.273
19,C15G A16U G69C,-4.45
20,C15A C20A G107A A121G,-5.21
21,A16C C40G C56A,-3.75

row,Variant,polymerase ribozyme fitness (log ratio)
1,A16G U81A,-2.36
2,C15G G52U U87G,-3.21
3,C15U G36A,-1.76
4,A16U C22G C64U,-4.96
5,C15U G44C A83U A100C,-3.3
6,C15G U55C A75G,-3.14
7,C15A G61U A105C,-4.93
8,G17A C123U,-2.01
9,C15A C56U,-1.71
10,C15A C56A,-0.645
11,C15A C70A,-2.47
12,C15A C70U,-2.96
13,G17A U78C U129C,-3.37
14,G17C A29U U125G,-5.1
15,C15U C114A,-3.36
16,C15G G60C U130C,-1.49
17,A16G C76G G117A C123G G135U,-1.57
18,C15A G47U G61U,-3.15
19,G17A G110A,-4.08
20,C15A G52U U55G,-1.52
